The results in this text go back to publication doi:10.1101/695700.

Usually Kd stands for the equilibrium constant for the complex coming apart. A high value points to lower affinity.

The target in this test is complement C3. The test is described as follows: SPR. For orientation: Surface plasmon resonance follows binding to a sensor surface in real time, without labels.

B1: recombinant HC1 (rHC1), wild type; heavy chain 1 of inter-α-inhibitor (natural protein)
chain: SKSSEKRQAVDTAVDGVFIRSLKVNCKVTSRFAHYVVTSQVVNTANEAREVAFDLEIPKTAFISDFAVTADGNAFIGDIKDKVTAWKQYRKAAISGENAGLVRASGRTMEQFTIHLTVNPQSKVTFQLTYEEVLKRNHMQYEIVIKVKPKQLVHHFEIDVDIFEPQGISKLDAQASFLPKELAAQTIKKSFSGKKGHVLFRPTVSQQQSCPTCSTSLLNGHFKVTYDVSRDKICDLLVANNHFAHFFAPQNLTNMNKNVVFVIDISGSMRGQKVKQTKEALLKILGDMQPGDYFDLVLFGTRVQSWKGSLVQASEANLQAAQDFVRGFSLDEATNLNGGLLRGIEILNQVQESLPELSNHASILIMLTDGDPTEGVTDRSQILKNVRNAIRGRFPLYNLGFGHNVDFNFLEVMSMENNGRAQRIYEDHDATQQLQGFYSQVAKPLLVDVDLQYPQDAVLALTQNHHKQYYEGSEIVVAGRIADNKQSSFKADVQAHGEGQEFSITCLVDEEEMKKLLRERGHMLENHVERLWAYLTIQELLAKRMKVDREERANLSSQALQMSLDYGFVTPLTSMSIRGMADQDGLKPTIDKPSEDSPPLEMLGPRRTFVLSALQPSPTHSSSNTQRLPDRVTGVDTD
B1 had a dissociation constant Kd of 360 nM.
